Experimental findings from publication doi:10.1101/2022.02.28.482286 (bioRxiv, 2022) are described below.

Assay in all cases: cryo-EM structure
One assay addresses T1, Pol III subunit C128 (S. cerevisiae, UniProt P22276 1-1149).
T1 sequence (looked up): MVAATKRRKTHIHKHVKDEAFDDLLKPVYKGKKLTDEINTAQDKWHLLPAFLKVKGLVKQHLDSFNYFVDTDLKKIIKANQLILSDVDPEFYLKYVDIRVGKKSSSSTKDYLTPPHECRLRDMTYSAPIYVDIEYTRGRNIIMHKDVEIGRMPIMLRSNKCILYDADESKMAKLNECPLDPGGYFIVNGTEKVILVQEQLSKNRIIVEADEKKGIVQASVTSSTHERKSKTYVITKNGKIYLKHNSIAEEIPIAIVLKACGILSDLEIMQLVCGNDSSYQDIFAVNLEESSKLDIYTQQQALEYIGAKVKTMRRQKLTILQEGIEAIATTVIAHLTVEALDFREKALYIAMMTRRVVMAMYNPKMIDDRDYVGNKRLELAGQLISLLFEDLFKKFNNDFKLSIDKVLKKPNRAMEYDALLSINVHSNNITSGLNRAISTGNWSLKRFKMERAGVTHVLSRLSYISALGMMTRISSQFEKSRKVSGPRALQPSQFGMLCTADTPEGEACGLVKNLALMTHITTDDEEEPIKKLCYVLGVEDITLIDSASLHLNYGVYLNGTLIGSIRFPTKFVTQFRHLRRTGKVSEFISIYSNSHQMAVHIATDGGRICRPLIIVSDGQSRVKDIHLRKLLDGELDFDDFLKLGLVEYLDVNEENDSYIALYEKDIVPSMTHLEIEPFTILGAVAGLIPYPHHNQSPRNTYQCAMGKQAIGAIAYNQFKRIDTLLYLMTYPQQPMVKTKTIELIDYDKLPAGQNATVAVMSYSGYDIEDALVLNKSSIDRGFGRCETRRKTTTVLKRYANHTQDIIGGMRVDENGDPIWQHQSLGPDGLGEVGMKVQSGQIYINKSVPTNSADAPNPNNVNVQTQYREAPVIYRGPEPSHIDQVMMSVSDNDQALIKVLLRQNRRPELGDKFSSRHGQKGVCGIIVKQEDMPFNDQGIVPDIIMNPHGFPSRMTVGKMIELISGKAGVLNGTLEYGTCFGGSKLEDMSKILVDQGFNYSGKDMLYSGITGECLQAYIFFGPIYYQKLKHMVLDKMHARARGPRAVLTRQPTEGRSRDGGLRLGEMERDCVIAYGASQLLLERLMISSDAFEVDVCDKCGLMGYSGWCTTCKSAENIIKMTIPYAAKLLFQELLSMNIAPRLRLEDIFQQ

The next assay has as its target T2, Pol III subunit C53 (S. cerevisiae, UniProt P25441 1-422).
T2 sequence (looked up): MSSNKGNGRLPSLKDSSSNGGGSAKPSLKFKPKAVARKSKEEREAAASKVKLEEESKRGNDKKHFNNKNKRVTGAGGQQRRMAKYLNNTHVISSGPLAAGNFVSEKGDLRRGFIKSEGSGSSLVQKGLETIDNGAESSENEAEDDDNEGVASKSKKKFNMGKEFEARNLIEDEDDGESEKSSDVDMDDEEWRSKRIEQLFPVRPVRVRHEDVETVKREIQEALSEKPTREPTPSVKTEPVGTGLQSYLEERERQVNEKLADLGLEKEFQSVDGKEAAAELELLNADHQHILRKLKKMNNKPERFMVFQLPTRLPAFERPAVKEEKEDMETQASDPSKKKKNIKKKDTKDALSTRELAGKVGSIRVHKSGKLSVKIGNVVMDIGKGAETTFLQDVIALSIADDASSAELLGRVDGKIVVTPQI

The next assay addresses T3, subunit ABC27 (S. cerevisiae, UniProt P20434 1-215).
T3 sequence (looked up): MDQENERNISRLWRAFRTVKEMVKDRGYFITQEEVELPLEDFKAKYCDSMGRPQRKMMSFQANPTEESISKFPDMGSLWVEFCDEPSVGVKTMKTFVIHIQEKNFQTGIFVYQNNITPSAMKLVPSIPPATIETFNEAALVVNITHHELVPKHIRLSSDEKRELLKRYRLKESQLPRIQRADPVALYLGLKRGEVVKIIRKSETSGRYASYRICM

The target of the next assay is T4, Pol III subunit C160 (S. cerevisiae, UniProt P04051 1-1460).
T4 sequence (looked up): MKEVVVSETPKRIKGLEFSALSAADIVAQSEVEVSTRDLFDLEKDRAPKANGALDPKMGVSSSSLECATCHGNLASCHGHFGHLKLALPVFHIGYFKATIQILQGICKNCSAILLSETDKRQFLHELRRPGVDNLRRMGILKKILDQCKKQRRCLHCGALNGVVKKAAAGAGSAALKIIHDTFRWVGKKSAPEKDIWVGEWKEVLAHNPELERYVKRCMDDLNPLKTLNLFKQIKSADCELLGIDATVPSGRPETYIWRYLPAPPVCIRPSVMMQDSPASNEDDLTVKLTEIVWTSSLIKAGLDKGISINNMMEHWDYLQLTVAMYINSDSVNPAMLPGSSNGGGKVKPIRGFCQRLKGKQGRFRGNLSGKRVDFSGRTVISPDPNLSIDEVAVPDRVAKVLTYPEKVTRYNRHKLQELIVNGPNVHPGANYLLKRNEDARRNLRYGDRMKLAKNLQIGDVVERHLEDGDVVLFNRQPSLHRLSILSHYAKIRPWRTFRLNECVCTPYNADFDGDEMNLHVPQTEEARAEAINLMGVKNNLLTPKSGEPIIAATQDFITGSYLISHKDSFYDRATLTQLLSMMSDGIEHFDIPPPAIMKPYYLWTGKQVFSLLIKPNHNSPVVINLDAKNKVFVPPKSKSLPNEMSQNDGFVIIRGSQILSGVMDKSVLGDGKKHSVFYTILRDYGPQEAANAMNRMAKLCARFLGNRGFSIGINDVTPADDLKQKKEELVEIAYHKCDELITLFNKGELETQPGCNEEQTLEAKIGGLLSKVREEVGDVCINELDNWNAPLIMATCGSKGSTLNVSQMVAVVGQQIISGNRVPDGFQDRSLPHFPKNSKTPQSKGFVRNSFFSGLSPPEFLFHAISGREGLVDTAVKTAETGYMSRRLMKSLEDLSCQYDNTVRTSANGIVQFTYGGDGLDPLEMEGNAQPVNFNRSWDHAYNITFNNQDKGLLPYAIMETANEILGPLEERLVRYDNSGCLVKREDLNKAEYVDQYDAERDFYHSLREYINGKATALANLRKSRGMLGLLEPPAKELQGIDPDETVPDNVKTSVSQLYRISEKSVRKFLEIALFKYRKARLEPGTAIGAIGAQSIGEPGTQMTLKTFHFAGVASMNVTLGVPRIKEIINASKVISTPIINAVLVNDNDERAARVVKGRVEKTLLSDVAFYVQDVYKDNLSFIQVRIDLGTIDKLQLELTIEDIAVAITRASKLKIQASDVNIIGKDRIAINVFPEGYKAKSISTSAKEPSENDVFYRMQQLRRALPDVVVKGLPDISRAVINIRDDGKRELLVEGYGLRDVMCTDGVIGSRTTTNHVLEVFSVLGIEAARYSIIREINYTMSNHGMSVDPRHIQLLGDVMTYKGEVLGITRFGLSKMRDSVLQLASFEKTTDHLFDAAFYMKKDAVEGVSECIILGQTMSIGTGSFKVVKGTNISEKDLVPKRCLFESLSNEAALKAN

B1: C53-C37 heterodimer (complex, S. cerevisiae)
chain 1: MSSNKGNGRLPSLKDSSSNGGGSAKPSLKFKPKAVARKSKEEREAAASKVKLEEESKRGNDKKHFNNKNKRVTGAGGQQRRMAKYLNNTHVISSGPLAAGNFVSEKGDLRRGFIKSEGSGSSLVQKGLETIDNGAESSENEAEDDDNEGVASKSKKKFNMGKEFEARNLIEDEDDGESEKSSDVDMDDEEWRSKRIEQLFPVRPVRVRHEDVETVKREIQEALSEKPTREPTPSVKTEPVGTGLQSYLEERERQVNEKLADLGLEKEFQSVDGKEAAAELELLNADHQHILRKLKKMNNKPERFMVFQLPTRLPAFERPAVKEEKEDMETQASDPSKKKKNIKKKDTKDALSTRELAGKVGSIRVHKSGKLSVKIGNVVMDIGKGAETTFLQDVIALSIADDASSAELLGRVDGKIVVTPQI
chain 2: MSIDNKLFVTEEDEEDRTQDRADVEDESNDIDMIADENGTNSAIANEQEEKSEEVKAEDDTGEEEEDDPVIEEFPLKISGEEESLHVFQYANRPRLVGRKPAEHPFISAARYKPKSHLWEIDIPLDEQAFYNKDKAESEWNGVNVQTLKGVGVENNGQYAAFVKDMQVYLVPIERVAQLKPFFKYIDDANVTRKQEDARRNPNPSSQRAQVVTMSVKSVNDPSQNRLTGSLLAHKVADEEANIELTWAEGTFEQFKDTIVKEAEDKTLVALEKQEDYIDNLV
Take B1: the binding result with Pol III subunit C128 is listed as “binds”.

B2: Pol III subunit C37 (natural protein, S. cerevisiae, UniProt P36121 1-282, looked up)
chain: MSIDNKLFVTEEDEEDRTQDRADVEDESNDIDMIADENGTNSAIANEQEEKSEEVKAEDDTGEEEEDDPVIEEFPLKISGEEESLHVFQYANRPRLVGRKPAEHPFISAARYKPKSHLWEIDIPLDEQAFYNKDKAESEWNGVNVQTLKGVGVENNGQYAAFVKDMQVYLVPIERVAQLKPFFKYIDDANVTRKQEDARRNPNPSSQRAQVVTMSVKSVNDPSQNRLTGSLLAHKVADEEANIELTWAEGTFEQFKDTIVKEAEDKTLVALEKQEDYIDNLV
For B2, the binding result with Pol III subunit C128 and with Pol III subunit C53 was “binds” each time.

B3: Pol III subunit C11 (natural protein, S. cerevisiae, UniProt Q04307 1-110, looked up)
chain: MLSFCPSCNNMLLITSGDSGVYTLACRSCPYEFPIEGIEIYDRKKLPRKEVDDVLGGGWDNVDQTKTQCPNYDTCGGESAYFFQLQIRSADEPMTTFYKCVNCGHRWKEN
For B3, the binding result with subunit ABC27 and in the assay with Pol III subunit C160 was “binds” each time.
